Laboratory results taken from patent publication US5834290.

T1: soybean trypsin inhibitor (SBTI), P01070
T1 chain: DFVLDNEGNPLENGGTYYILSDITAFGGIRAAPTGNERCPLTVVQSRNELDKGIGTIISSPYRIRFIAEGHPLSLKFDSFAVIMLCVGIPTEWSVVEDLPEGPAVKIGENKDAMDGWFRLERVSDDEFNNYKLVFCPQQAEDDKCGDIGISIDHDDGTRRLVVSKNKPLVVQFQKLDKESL

B1: stratum corneum chymotryptic enzyme (SCCE), native, from human plantar stratum corneum (protein)
chain: IIDGAPCARGSHPWQVALLSGNQLHCGGVLVNERWVLTAAHCKMNEYTVHLGSDTLGDRRAQRIKASKSFRHPGYSTQTHVNDLMLVKLNSQARLSSMVKKVRLPSRCEPPGTTCTVSGWGTTTSPDVTFPSDLMCVDVKLISPQDCTKVYKDLLENSMLCAGIPDSKKNACNGDSGGPLVCRGTLQGLVSWGTFPCGQPNDPGVYTQVCKFTKWINDTMKKHR
B2: recombinant SCCE, active (trypsin-activated recombinant SCCE of Example 10; rSCCE of Examples 12 and 13) (enzyme)
chain: IIDGAPCARGSHPWQVALLSGNQLHCGGVLVNERWVLTAAHCKMNEYTVHLGSDTLGDRRAQRIKASKSFRHPGYSTQTHVNDLMLVKLNSQARLSSMVKKVRLPSRCEPPGTTCTVSGWGTTTSPDVTFPSDLMCVDVKLISPQDCTKVYKDLLENSMLCAGIPDSKKNACNGDSGGPLVCRGTLQGLVSWGTFPCGQPNDPGVYTQVCKFTKWINDTMKKHR

What was measured:
[1] = molecular target: T1, soybean trypsin inhibitor (SBTI), P01070; test: affinity chromatography of KCl-extracts of plantar corneocytes on covalently linked soybean trypsin inhibitor
[2] = molecular target: desmoglein I (DG I) (Homo sapiens (Human)) (UniProt Q02413)
Sequence of desmoglein I (DG I) (Homo sapiens (Human)) (Q02413 50-1049 limits assumed): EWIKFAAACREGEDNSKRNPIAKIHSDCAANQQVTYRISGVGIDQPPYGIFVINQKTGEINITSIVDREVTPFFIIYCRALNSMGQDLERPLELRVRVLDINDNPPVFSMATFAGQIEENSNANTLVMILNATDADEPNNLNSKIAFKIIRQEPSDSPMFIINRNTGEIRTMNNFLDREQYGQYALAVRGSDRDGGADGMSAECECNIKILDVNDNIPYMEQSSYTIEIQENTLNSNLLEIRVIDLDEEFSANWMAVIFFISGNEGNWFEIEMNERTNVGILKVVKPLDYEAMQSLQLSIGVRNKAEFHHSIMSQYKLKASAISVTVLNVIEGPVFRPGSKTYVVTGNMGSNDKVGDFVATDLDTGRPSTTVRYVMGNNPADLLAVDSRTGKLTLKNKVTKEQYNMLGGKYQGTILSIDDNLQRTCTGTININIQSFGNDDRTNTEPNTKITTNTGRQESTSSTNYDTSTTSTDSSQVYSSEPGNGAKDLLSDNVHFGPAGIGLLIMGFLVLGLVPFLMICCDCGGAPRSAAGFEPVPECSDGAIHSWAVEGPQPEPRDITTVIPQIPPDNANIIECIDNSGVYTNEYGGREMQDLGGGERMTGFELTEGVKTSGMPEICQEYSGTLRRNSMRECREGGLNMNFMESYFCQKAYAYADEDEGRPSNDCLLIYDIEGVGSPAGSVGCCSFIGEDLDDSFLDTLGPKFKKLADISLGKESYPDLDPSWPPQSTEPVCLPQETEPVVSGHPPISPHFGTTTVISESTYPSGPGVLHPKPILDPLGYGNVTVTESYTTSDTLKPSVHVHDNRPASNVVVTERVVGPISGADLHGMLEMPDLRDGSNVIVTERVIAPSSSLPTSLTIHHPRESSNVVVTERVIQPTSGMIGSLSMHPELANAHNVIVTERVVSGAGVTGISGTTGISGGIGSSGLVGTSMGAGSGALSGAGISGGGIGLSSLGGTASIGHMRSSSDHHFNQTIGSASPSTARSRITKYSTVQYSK

| Binder | percent of the S-2586 hydrolyzing activity bound to the gel [1] | levels of the desmosome marker protein desmoglein I after 24 hours at 37° C., DG I (arbitrary units/mg squames) (arbitrary units/mg squames) [2] |
| --- | --- | --- |
| B1 | Approximately 90% of the S-2586 hydrolyzing activity was bound to the gel | – |
| B2 | – | 4060 |
